Laboratory results reported in article PMC4811492, “Dimeric peroxiredoxins are druggable targets in human Burkitt lymphoma” (Oncotarget, 2015).
Changes are numbered by the printed parent chain.

Assays:
[1] = target: the molecule itself; assay: cross-linking; Raji or Ramos cells cultured with SK053 (10 uM, or indicated concentrations for 24 h) or SK-bio (55 uM, time course); lysates resolved under denaturing and reducing conditions, immunoblot with PRDX-specific antibodies; monomer ~22 kDa, dimer ~44 kDa
[2] = target: the molecule itself; assay: cross-linking; recombinant human PRDX1 incubated with SK-bio in vitro (Supplementary Figure S7); dimer formation less efficient than in cells
[3] = target: the molecule itself; assay: cross-linking; HEK293T cells transfected with pLenti6-PRDX1-V5 (WT or Cys-to-Ala variants), 24 h later 41 uM SK053 or DMSO for 24 h; immunoblot with anti-V5 and anti-PRDX1

B1: peroxiredoxin 1 (PRDX1), endogenous in Burkitt lymphoma cells (enzyme, human (endogenous in Raji and Ramos), UniProt Q06830 1-199, looked up)
chain: MSSGNAKIGHPAPNFKATAVMPDGQFKDISLSDYKGKYVVFFFYPLDFTFVCPTEIIAFSDRAEEFKKLNCQVIGASVDSHFCHLAWVNTPKKQGGLGPMNIPLVSDPKRTIAQDYGVLKADEGISFRGLFIIDDKGILRQITVNDLPVGRSVDETLRLVQAFQFTDKHGEVCPAGWKPGSDTIKPDVQKSKEYFSKQK
notes: peroxiredoxin 1, human, endogenous in Raji and Ramos Burkitt lymphoma cells; source: endogenous, Raji and Ramos cells
- stoichiometry N [1]: 2

B2: recombinant human PRDX1 (enzyme, UniProt Q06830 1-199, looked up)
chain: B1 chain
notes: peroxiredoxin 1, human, recombinant
- stoichiometry N [2]: 2

B3: native untagged PRDX1, endogenous in HEK293T cells (enzyme, human (endogenous in HEK293T), UniProt Q06830 1-199, looked up)
chain: B1 chain
notes: peroxiredoxin 1, human, endogenous untagged protein of HEK293T cells; also called native untagged form; source: endogenous, HEK293T cells
- stoichiometry N [3]: 2

B4: V5-tagged human wild-type PRDX1 (enzyme, UniProt Q06830 1-199, looked up)
chain: B1 chain
notes: peroxiredoxin 1, human, wild type, expressed from pLenti6/V5-DEST-PRDX1; The vector pLenti6/V5-DEST usually adds the V5 tag at the C-terminus (surmised; the plasmid is printed as PRDX1-V5); also called PRDX1-V5; WT; source: HEK293T, transfected (pLenti6-PRDX1-V5), in cells
- stoichiometry N [3]: 2

B5: V5-tagged human PRDX1 C83A (enzyme, UniProt Q06830 1-199, looked up)
chain: B1 chain with C83A
notes: peroxiredoxin 1, human, Cys83 (outside the active site) changed to Ala; The vector pLenti6/V5-DEST usually adds the V5 tag at the C-terminus (surmised); source: HEK293T, transfected (pLenti6-PRDX1-V5), in cells
- stoichiometry N [3]: 2

B6: peroxiredoxin 2 (PRDX2), endogenous in Burkitt lymphoma cells (enzyme, human (endogenous in Raji and Ramos), UniProt P32119 1-198, looked up)
chain: MASGNARIGKPAPDFKATAVVDGAFKEVKLSDYKGKYVVLFFYPLDFTFVCPTEIIAFSNRAEDFRKLGCEVLGVSVDSQFTHLAWINTPRKEGGLGPLNIPLLADVTRRLSEDYGVLKTDEGIAYRGLFIIDGKGVLRQITVNDLPVGRSVDEALRLVQAFQYTDEHGEVCPAGWKPGSDTIKPNVDDSKEYFSKHN
notes: peroxiredoxin 2, human, endogenous in Raji and Ramos cells; source: endogenous, Raji and Ramos cells
- stoichiometry N [1]: 2

B7: peroxiredoxin 3 (PRDX3), endogenous in Burkitt lymphoma cells (enzyme, human (endogenous in Raji and Ramos), UniProt P30048 62-256, looked up)
chain: APAVTQHAPYFKGTAVVNGEFKDLSLDDFKGKYLVLFFYPLDFTFVCPTEIVAFSDKANEFHDVNCEVVAVSVDSHFSHLAWINTPRKNGGLGHMNIALLSDLTKQISRDYGVLLEGSGLALRGLFIIDPNGVIKHLSVNDLPVGRSVEETLRLVKAFQYVETHGEVCPANWTPDSPTIKPSPAASKEYFQKVNQ
notes: peroxiredoxin 3, human, endogenous in Raji and Ramos cells; source: endogenous, Raji and Ramos cells
- stoichiometry N [1]: 2

B8: peroxiredoxin 4 (PRDX4), endogenous in Burkitt lymphoma cells (enzyme, human (endogenous in Raji and Ramos), UniProt Q13162 38-271, looked up)
chain: WETEERPRTREEECHFYAGGQVYPGEASRVSVADHSLHLSKAKISKPAPYWEGTAVIDGEFKELKLTDYRGKYLVFFFYPLDFTFVCPTEIIAFGDRLEEFRSINTEVVACSVDSQFTHLAWINTPRRQGGLGPIRIPLLSDLTHQISKDYGVYLEDSGHTLRGLFIIDDKGILRQITLNDLPVGRSVDETLRLVQAFQYTDKHGEVCPAGWKPGSETIIPDPAGKLKYFDKLN
notes: peroxiredoxin 4, human, endogenous in Raji and Ramos cells; source: endogenous, Raji and Ramos cells
- stoichiometry N [1]: 2
